Source: paper PMC8065111 (Nature Communications, 2021)
Each block holds one molecule with its values, some of them ahead of it.

Legend:
DIAPH1 (Homo sapiens) = DIAPH1 (Homo sapiens) (UniProt O60610); test: BLI; conditions: cited from earlier work
GST-IQGAP1-DBR (human) = GST-IQGAP1-DBR (human) (UniProt P46940); test: BLI; Octet RED96; GST-tagged ligands on GST biosensors; analyte 0.5 nM to 5 μM; PBS, 0.002% Tween-20, 0.1 mg/ml BSA; 30 °C; one site-specific binding, saturation curve
MBP-CLIP170-NT [1] = target: T1, MBP-CLIP170-NT (human); test: BLI; individual test 2
T1 chain: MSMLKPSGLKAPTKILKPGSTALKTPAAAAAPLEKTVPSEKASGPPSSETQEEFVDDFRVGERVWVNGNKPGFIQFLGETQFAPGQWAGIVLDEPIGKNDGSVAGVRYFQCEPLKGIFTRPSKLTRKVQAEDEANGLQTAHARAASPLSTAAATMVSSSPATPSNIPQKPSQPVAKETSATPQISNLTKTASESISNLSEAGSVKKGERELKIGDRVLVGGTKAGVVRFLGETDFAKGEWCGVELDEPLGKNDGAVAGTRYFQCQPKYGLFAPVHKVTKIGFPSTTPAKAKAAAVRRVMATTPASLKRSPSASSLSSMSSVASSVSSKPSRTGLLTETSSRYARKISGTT

MBP-CLIP170-NT [2] = target: T1, MBP-CLIP170-NT; test: BLI; individual test 1
His6-DIAPH1-NT = target: T2, His6-DIAPH1-NT (human, UniProt O60610 1-575); test: pull-down; 0.05 nmol GST-IQGAP1-DBR immobilised on GST beads, first partner equimolar 1 h, then second partner equimolar 1 h; 25 mM HEPES pH 7.5, 250 mM NaCl, 100 mM KCl, 0.5 mM beta-mercaptoethanol, 1 mM PMSF, 0.1% Triton X-100; 4 °C; anti-His6 and anti-MBP blots; conditions: both partners purified
T2 construct: human DIAPH1, N-terminal fragment, residues 1-575 of the 1272-residue protein; plasmid pET30a-DIAPH1-NT(1-575aa); Plasmid was a gift from J. Copeland; also called N-terminal fragment of DIAPH1; DIAPH1 N-terminal regulatory domains; source: E. coli BL21, purified (nickel-Sepharose)
T2 sequence (O60610 1-575): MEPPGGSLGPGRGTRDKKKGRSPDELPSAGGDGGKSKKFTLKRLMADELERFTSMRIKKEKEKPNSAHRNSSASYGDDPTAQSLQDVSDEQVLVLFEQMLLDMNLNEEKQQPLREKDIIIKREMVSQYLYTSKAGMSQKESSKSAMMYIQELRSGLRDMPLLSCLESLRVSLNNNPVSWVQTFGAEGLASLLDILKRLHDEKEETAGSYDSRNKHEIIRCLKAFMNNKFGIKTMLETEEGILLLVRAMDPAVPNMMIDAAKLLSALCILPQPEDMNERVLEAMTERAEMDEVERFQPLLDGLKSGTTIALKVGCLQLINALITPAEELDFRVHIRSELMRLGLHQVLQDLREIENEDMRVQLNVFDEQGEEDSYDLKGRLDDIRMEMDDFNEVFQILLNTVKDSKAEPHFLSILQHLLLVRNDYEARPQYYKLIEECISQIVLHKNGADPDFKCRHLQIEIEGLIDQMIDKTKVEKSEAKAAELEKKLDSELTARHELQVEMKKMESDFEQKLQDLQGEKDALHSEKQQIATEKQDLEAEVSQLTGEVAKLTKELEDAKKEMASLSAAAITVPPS

DIAPH1 (Homo sapiens), sequence (O60610 whole entry): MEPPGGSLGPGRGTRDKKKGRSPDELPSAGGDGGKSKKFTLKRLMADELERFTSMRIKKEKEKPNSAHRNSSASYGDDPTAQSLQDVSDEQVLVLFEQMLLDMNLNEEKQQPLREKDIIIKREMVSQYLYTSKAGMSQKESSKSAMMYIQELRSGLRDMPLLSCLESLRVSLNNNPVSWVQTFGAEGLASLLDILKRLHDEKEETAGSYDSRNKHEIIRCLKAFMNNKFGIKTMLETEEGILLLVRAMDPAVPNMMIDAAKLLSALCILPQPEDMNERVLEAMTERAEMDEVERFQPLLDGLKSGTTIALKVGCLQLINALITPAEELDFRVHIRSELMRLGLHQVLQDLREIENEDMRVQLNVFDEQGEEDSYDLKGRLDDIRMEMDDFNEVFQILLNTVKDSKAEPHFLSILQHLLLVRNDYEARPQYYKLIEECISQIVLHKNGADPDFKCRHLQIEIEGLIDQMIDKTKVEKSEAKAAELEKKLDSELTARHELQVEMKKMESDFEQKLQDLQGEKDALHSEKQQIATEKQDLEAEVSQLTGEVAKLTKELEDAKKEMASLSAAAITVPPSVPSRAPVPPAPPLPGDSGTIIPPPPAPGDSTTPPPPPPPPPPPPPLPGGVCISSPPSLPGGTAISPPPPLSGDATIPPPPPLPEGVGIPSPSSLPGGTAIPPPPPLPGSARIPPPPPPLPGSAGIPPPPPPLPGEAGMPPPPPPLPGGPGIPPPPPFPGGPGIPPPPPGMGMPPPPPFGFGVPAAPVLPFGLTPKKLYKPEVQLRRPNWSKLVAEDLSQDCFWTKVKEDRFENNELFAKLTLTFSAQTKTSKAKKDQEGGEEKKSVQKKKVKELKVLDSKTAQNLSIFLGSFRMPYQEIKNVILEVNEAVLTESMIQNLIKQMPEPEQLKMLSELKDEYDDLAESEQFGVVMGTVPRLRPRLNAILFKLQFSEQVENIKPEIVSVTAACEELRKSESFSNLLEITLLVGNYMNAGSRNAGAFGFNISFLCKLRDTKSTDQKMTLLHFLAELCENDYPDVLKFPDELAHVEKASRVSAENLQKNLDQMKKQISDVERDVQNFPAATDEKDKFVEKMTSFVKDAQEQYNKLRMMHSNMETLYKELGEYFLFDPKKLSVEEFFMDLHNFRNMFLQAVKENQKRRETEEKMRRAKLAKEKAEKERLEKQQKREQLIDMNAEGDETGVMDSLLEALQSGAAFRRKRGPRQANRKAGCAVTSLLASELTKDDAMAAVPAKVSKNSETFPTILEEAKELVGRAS

Molecule: IQGAP1 (from UniProt P46940)
Kd (DIAPH1 (Homo sapiens)): 81.2 nM

Kd (GST-IQGAP1-DBR (human)): 20.5 nM
Molecule: MBP-CLIP170-NT (domain or fragment)

Kd (MBP-CLIP170-NT [1]): 15.6 nM
Kd (MBP-CLIP170-NT [2]): 24.1 nM
binding result (His6-DIAPH1-NT): binds
B1: GST-IQGAP1-DBR (domain or fragment, human, UniProt P46940 1500-1657, looked up)
chain: KAELVKLQQTYAALNSKATFYGEQVDYYKSYIKTCLDNLASKGKVSKKPREMKGKKSKKISLKYTAARLHEKGVLLEIEDLQVNQFKNVIFEISPTEEVGDFEVKAKFMGVQMETFMLHYQDLLQLQYEGVAVMKLFDRAKVNVNLLIFLLNKKFYGK
notes: cloned into pDEST15; also called IQGAP-DBR; source: E. coli BL21, purified (glutathione beads)
